The text below walks through data of paper PMC10322840.

Experiment [1] has as its target Paracentrotus lividus RAF, 6 MYC tags (Paracentrotus lividus). Kind of experiment: co-IP; lysates of co-transfected HEK293T cells (200 ul at 0.5 mg/ml); mouse anti-myc 9E10 overnight at 4 °C, Dynabeads Pan mouse IgG 2 h; five washes in 50 mM Tris HCl pH 7.5, 150 mM NaCl, 10% glycerol, 0.2% Triton X100, 1 mM EDTA; blots with rabbit anti-HA and anti-Myc.
Experiment [2] addresses Paracentrotus lividus RAF, 6 MYC tags. Description: co-immunoprecipitation (IP anti-Myc of Pl. RAF, blot quantified). As to conditions: parent: 1; read off a plot.

Chain of Paracentrotus lividus RAF, 6 MYC tags (Paracentrotus lividus) (main, as listed by the source): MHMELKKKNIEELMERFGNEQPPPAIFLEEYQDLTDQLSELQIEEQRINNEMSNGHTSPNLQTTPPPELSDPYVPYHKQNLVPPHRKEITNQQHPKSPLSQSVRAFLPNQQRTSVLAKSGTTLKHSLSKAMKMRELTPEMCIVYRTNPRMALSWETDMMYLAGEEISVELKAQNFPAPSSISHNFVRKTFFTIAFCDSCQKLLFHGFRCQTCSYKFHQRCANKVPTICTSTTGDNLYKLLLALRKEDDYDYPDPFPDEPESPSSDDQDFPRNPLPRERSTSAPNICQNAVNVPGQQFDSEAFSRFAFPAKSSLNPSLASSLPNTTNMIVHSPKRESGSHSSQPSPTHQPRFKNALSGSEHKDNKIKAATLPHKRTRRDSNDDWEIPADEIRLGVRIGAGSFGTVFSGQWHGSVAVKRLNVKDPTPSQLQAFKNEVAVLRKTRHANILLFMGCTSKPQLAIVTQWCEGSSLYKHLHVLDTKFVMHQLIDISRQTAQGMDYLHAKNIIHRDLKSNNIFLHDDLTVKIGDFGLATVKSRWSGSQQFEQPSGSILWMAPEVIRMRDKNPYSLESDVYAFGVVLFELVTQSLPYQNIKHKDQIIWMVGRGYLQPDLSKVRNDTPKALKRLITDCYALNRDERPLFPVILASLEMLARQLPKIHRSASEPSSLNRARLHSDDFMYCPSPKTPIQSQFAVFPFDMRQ

In experiment [1], “Paracentrotus lividus KSR3 S361E (natural protein)” registered a fold change of RAF co-immunoprecipitated, against wild-type KSR3 of 1.5 fold.
As for “Paracentrotus lividus KSR3, wild type, 3HA-tagged S361E; R364H”, in experiment [2], the ratio to parent (arbitrary units) was determined as 0.46.
